Paper PMC4761948 (2016)

Target: T1, GST-GCM1 (Homo sapiens (Human), UniProt Q9NP62)
T1 chain: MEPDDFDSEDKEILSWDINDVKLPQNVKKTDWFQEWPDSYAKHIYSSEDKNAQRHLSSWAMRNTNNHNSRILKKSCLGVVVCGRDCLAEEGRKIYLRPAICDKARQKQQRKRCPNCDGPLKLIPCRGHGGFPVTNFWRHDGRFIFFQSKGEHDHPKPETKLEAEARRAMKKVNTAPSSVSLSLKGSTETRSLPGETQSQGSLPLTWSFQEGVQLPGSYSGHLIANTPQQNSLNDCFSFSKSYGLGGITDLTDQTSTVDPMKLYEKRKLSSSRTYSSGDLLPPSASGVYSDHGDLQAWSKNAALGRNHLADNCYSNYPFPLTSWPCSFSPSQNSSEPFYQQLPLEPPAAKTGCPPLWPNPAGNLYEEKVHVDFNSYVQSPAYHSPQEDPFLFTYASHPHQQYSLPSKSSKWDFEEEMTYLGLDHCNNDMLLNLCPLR
Experiment: GST pull-down

B1: GATA3-FLAG (protein)
chain: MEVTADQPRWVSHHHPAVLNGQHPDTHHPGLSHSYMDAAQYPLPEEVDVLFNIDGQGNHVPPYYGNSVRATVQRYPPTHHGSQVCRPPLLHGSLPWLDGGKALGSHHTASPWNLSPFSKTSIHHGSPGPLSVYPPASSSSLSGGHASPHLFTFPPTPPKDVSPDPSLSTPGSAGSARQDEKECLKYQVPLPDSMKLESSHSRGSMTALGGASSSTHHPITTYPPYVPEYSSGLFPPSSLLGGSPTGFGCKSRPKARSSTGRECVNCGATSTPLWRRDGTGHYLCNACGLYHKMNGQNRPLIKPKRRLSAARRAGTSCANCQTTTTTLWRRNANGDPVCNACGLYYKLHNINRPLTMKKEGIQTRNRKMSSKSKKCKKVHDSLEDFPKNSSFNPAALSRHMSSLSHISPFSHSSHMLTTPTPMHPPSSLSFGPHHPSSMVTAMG
- binding result: binds
